We go through four molecules from patent publication US20140004122A1 (published 2014).

Test [1] deals with T1, cynomolgus monkey PCSK9, V5- and 6xHis-tagged (cynomolgus monkey, UniProt A0A7N9D9N8 150-747).
T1 construct: also called cPCSK9-V5-6xHIS; cPCSK9; not shown: V5 tag and 6xHis tag
Briefly: BIAcore SPR; antibody amine-coupled to CM5 chip, PCSK9 injected as analyte; pH 7.4. For orientation: Surface plasmon resonance follows binding to a sensor surface in real time, without labels.

Test [2] addresses T1, cynomolgus monkey PCSK9, V5- and …. Kind of test: KinExA solution equilibrium; free antibody captured on PCSK9-coated beads; cPCSK9 concentration adjusted to 50% active. (In general: Kinetic exclusion samples the free partner from a solution-phase mixture.)
Excerpt: (§1) Equilibrium dissociation constant (KD) were obtained from nonlinear regression of the two sets of competition curves using a one-site homogeneous binding model. The KinExA® Pro software was employed in the analysis.
The target in the next test is T2, PCSK1 (R&D Systems) (UniProt P29120 111-753, limits assumed).
T2 sequence (looked up): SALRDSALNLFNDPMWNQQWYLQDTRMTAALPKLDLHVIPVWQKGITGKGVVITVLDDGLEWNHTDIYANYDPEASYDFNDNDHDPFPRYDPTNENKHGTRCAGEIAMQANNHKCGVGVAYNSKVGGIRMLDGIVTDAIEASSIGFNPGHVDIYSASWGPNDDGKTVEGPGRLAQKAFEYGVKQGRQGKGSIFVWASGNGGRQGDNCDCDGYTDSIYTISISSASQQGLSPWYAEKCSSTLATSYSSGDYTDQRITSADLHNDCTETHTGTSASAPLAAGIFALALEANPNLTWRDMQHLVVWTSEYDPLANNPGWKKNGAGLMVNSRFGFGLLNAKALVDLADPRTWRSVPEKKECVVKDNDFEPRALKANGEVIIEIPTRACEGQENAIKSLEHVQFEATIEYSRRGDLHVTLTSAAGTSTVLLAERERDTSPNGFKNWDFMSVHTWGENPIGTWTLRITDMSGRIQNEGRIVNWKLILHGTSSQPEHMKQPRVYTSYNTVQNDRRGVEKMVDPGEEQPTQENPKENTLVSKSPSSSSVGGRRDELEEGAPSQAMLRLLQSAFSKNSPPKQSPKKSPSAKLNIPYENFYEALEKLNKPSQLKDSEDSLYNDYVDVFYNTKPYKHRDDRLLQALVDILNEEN
Kind of test: competition ELISA: 11F1 (0.4 µg/mL) pre-incubated with soluble convertase, then binding to plate-captured biotinylated PCSK9.

In a further test the target is T3, PCSK7 (R&D Systems) (UniProt Q16549 142-667, limits assumed).
T3 sequence (looked up): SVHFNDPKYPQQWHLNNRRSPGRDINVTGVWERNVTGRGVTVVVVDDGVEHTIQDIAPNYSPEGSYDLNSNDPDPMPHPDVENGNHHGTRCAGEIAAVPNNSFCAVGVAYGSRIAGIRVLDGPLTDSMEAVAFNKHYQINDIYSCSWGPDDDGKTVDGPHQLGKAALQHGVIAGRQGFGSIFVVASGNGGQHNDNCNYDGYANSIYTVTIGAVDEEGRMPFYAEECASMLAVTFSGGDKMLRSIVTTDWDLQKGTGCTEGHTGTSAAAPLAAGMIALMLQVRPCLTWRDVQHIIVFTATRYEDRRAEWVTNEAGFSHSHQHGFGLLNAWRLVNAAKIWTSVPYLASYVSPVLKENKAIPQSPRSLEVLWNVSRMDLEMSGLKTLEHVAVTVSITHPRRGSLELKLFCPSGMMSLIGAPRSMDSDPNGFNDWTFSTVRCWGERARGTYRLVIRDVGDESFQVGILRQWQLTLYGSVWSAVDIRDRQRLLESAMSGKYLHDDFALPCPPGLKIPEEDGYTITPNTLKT
The description is as above.

Test [3] has as its target T1, cynomolgus monkey PCSK9, V5- and …. Kind of test: BIAcore solution equilibrium; PCSK9 mixed with 21B12.1, free PCSK9 measured on immobilised 21B12.
Test [4] shares this target. Briefly: KinExA solution equilibrium; free antibody captured on PCSK9-coated beads; cPCSK9 concentration adjusted to 50% active. The source holds these as a separate data set.
Excerpt: as §1

B1: 31H4 anti-PCSK9 human IgG4 antibody (from hybridoma) (antibody, V domains shown)
VH: EVQLVESGGGLVKPGGSLRLSCAASGFTFSSYSMNWVRQAPGKGLEWVSSISSSSSYISYADSVKGRFTISRDNAKNSLYLQMNSLRAEDTAVYFCARDYDFWSAYYDAFDVWGQGTMVTVSS
VL: QSVLTQPPSVSGAPGQRVTISCTGSSSNIGAGYDVHWYQQLPGTAPKLLISGNSNRPSGVPDRFSGSKSGTSASLAITGLQAEDEADYYCQSYDSSLSGSVFGGGTKLTVLQ
notes: also called 31H4.1; 31H4 IgG4
In general, Kd refers to the constant that tells how readily two partners part at equilibrium. For B1, the Kd in test [1] was 190 pM; in test [2], 2 pM.

B2: 11F1 anti-PCSK9 antibody (antibody, V domains shown)
VH: EVQLVESGGGLVQPGGSLRLSCAASGFTFSNYWMSWVRQAPGKGLEWVASIKQDGSEKYYVDSVKGRFAISRDNAKNSLFLQMNSLRAEDTAVYYCARDLVLMVYDIDYYYYGMDVWGQGTTVTVSS
VL: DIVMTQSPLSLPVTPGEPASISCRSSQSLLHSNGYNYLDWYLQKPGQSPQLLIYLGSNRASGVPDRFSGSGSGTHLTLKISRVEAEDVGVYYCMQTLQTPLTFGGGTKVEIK
notes: It was detected with anti-human Fc, so it is a whole human antibody
Turning to B2, the binding result with PCSK1 (R&D Systems) and in the test with PCSK7 (R&D Systems) was “no binding (tested: 0 to 20 µg/mL)” in each case.

B3: 21B12 anti-PCSK9 human IgG4 antibody (from hybridoma) (antibody, V domains shown)
VH: QVQLVQSGAEVKKPGASVKVSCKASGYTLTSYGISWVRQAPGQGLEWMGWVSFYNGNTNYAQKLQGRGTMTTDPSTSTAYMELRSLRSDDTAVYYCARGYGMDVWGQGTTVTVSS
VL: QSALTQPASVSGSPGQSITISCTGTSSDVGGYNSVSWYQQHPGKAPKLMIYEVSNRPSGVSNRFSGSKSGNTASLTISGLQAEDEADYYCNSYTSTSMVFGGGTKLTVLQ
notes: also called 21B12.1; 21B12 IgG4
Consider B3, for which the values for the Kd in test [1] and in test [3] were 360 pM and 11 pM, respectively.

B4: 16F12 anti-PCSK9 human IgG4 antibody (antibody, V domains shown)
VH: QVHLVESGGGVVQPGRSLRLSCAASGFTFNSFGMHWVRQAPGKGLEWVALIWSDGSDEYYADSVKGRFTISRDNSKNTLYLQMNSLRAEDTAVYYCARAIAALYYYYGMDVWGQGTTVTVSS
VL: QSVLTQPPSVSAAPGQKVTISCSGSSSNIGNNFVSWYQQLPGTAPKLLIYDYNKRPSGIPDRFSGSKSGTSATLGITGLQTGDEADYYCGTWDSSLSAYVFGTGTRVTVLQ
notes: also called 16F12.1; 16F12, anti-PCSK9 huIgG4
Take B4: the dissociation constant Kd in test [1] stood at 870 pM; in test [4], 16 pM.
